Results on two substances are retold here after patent US20150329642A1.

The target in experiment [1] is human c-Met, membrane-bound on cells (human) (UniProt P08581). The experiment can be described thus: flow cytometry on A431 cells (PE goat anti-human IgG); top panel. In general terms: A flow cytometer gives signals particle by particle.
The target of experiment [2] is cMetECDHis (human) (UniProt P08581). In words: cross-block ELISA; competitor 024.
The target is the same in experiment [3]. In words: cross-block ELISA; competitor 035. A general note: An ELISA detects its analyte on a solid surface through an enzyme-linked reagent.
For experiment [4] the target is unchanged. In words: cross-block ELISA; competitor 045.
The target is the same in experiment [5]. The experiment can be described thus: cross-block ELISA; competitor 058.
Experiment [6] has the same target. The experiment can be described thus: cross-block ELISA; competitor 069.
Experiment [7] shares this target. The experiment can be described thus: cross-block ELISA; competitor 101.
The target is the same in experiment [8]. In words: cross-block ELISA; competitor 5D5.
Experiment [9] has the same target. In words: cross-block ELISA; competitor 022.
Experiment [10] has the same target. In words: cross-block ELISA; competitor 064.
In another experiment the target is cMetSEMA-567His8 (human) (UniProt P08581). In words: TR-FRET; displacement of AlexaFluor-647-HGF from cMetSEMA-567His8.
For experiment [11], the target named is cMetECDHis (human) (UniProt P08581). The experiment can be described thus: BLI (Octet); antibody captured, cMetECDHis in solution. On the technique in general: BLI is a label-free optical method that tracks binding on a fibre tip over time.
Experiment [12] has the same target. The experiment can be described thus: cross-block ELISA; competitor 006.
The target of experiment [13] is recombinant human c-Met extracellular domain (R&D systems) (human) (UniProt P08581). In words: competition ELISA, residual Europium-HGF signal at 615 nm at the lower plateau of the fit; sheet prints no competing mAb ~66000, no HGF-Europium ~600; upper panel.
For experiment [14], the target named is cMetECDHis (human) (UniProt P08581). In words: cross-block ELISA; competitor 181.
Experiment [15] has as its target recombinant human c-Met extracellular domain (R&D systems) (human) (UniProt P08581). The experiment can be described thus: competition ELISA on coated recombinant c-Met extracellular domain; blocked ligand Europium-conjugated HGF; column headed EC50 on the sheet, called IC50 in paragraph 270; upper panel.
Experiment [16] concerns the target cMetECDHis (human) (UniProt P08581). The experiment can be described thus: cross-block ELISA; competitor 068.
For experiment [17] the target is unchanged. The experiment can be described thus: cross-block ELISA; competitor 098.
The target is the same in experiment [18]. In words: cross-block ELISA; competitor G11-HZ.
Experiment [19] shares this target. In words: cross-block ELISA; competitor 005.
For experiment [20] the target is unchanged. The experiment can be described thus: cross-block ELISA; competitor 008.
For experiment [21] the target is unchanged. The experiment can be described thus: cross-block ELISA; competitor 062.

In the case of IgG1-5D5 (antibody), the EC50 (as a rule, the concentration giving half of the maximal effect) in [1] was determined as 0.531 nM. For the same substance, the residual binding, % of no competitor with cMetECDHis (human) [2] was determined as 94.2%; with cMetECDHis (human) [3], 98.1%; with cMetECDHis (human) [4], 83.9%; with cMetECDHis (human) [5], 6.6%; in the experiment with cMetECDHis (human) [6], 99.6%; in the experiment with cMetECDHis (human) [7] it was 97.9%. Moreover, the residual binding, % of no competitor stood at 4.1% in the experiment with cMetECDHis (human) [8]; 12.4% in the experiment with cMetECDHis (human) [9]; 97.1% in the experiment with cMetECDHis (human) [10]; 58.8% with cMetECDHis (human) [12]; 103% with cMetECDHis (human) [14]; 97.8% in the experiment with cMetECDHis (human) [16]. The residual binding, % of no competitor was 97.6% with cMetECDHis (human) [17]; 97.3% with cMetECDHis (human) [18]; 42.3% in the experiment with cMetECDHis (human) [19]; 90.2% with cMetECDHis (human) [20]; 97.6% with cMetECDHis (human) [21]. For the same substance, the % inhibition (as a rule, the share of the control response that was lost under treatment) in the experiment with cMetSEMA-567His8 (human) is 95%. Besides, the IC50 (commonly the concentration that inhibits the measured activity by half) with cMetSEMA-567His8 (human) was 0.2 µg/mL; in experiment [15], 0.0244 µg/mL. The Kd – broadly, the free concentration of one partner at which half of the binding sites on the other are occupied at equilibrium, for simple one-to-one binding – with cMetECDHis (human) [11] came out at 5.86 nM. Moreover, in the experiment with cMetECDHis (human) [11], the koff (as a rule, a measure of how fast the partners let go of each other) amounted to 0.00125 s⁻¹. Further, the kon (commonly the second-order rate constant of association) with cMetECDHis (human) [11] was 214000 M⁻¹ s⁻¹. Also, the Bottom in experiment [13] came out at 6350 RFU.
Consider IgG4-5D5 (antibody), for which the EC50 in experiment [1] was 0.966 nM.
